{"source": "paper PMC2728291", "about": "(Journal of molecular biology, 2009)", "binders": {"B1": {"name": "BLIP Asp49Ser mutant (natural protein)", "chain": "AGVMTGAKFTQIQFGMTRQQVLDIAGAENCETGGSFGDSIHCRGHAAGSYYAYATFGFTSAAADAKVDSKSQEKLLAPSAPTLTLAKFNQVTVGMTRAQVLATVGQGSCTTWSEYYPAYPSTAGVTLSLSCFDVDGYSSTGFYRGSAHLWFTDGVLQGKRQWDLV"}, "B2": {"name": "BLIP Glu31Gln mutant (natural protein)", "chain": "B1 chain with E31Q, S49D"}, "B3": {"name": "BLIP Glu73Tyr mutant (natural protein)", "chain": "B1 chain with S49D, E73Y"}, "B4": {"name": "BLIP Phe142Gly mutant (natural protein)", "chain": "B1 chain with S49D, F142G"}, "B5": {"name": "BLIP Trp112Arg mutant (natural protein)", "chain": "B1 chain with S49D, W112R"}}, "note": "Changes are numbered by the printed parent chain."}
{"target": "TEM-1 β-lactamase (UniProt P62593 24-286)", "sequence (P62593 24-286)": "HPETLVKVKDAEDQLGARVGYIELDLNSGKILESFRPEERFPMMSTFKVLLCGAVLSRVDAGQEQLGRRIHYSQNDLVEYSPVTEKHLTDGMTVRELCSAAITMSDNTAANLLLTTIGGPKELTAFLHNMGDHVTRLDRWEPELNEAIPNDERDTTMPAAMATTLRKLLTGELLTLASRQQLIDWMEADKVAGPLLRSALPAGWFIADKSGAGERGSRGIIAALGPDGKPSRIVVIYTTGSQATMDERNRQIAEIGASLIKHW", "test": "enzyme inhibition assay", "units": {"Ki": "nM"}}
{"binder": "B1", "Ki": 16}
{"binder": "B2", "Ki": 1.4}
{"binder": "B3", "Ki": 3.7}
{"binder": "B4", "Ki": 12}
{"binder": "B5", "Ki": 3.9}
